Experimental findings from IntAct's records for PubMed 31515488 are described below.

The labels stand for the following.
B1: Myomegalin (Homo sapiens), Q5VU43-2 (parent)
chain: MKEICRICARELCGNQRRWIFHTASKLNLQVLLSHVLGKDVPRDGKAEFACSKCAFMLDRIYRFDTVIARIEALSIERLQKLLLEKDRLKFCIASMYRKNNDDSGAEIKAGNGTVDMSVLPDARYSALLQEDFAYSGFECWVENEDQIQEPHSCHGSEGPGNRPRRCRGCAALRVADSDYEAICKVPRKVARSISCGPSSRWSTSICTEEPALSEVGPPDLASTKVPPDGESMEEETPGSSVESLDASVQASPPQQKDEETERSAKELGKCDCCSDDQAPQHGCNHKLELALSMIKGLDYKPIQSPRGSRLPIPVKSSLPGAKPGPSMTDGVSSGFLNRSLKPLYKTPVSYPLELSDLQELWDDLCEDYLPLRVQPMTEELLKQQKLNSHETTITQQSVSDSHLAELQEKIQQTEATNKILQEKLNEMSYELKCAQESSQKQDGTIQNLKETLKSRERETEELYQVIEGQNDTMAKLREMLHQSQLGQLHSSEGTSPAQQQVALLDLQSALFCSQLEIQKLQRVVRQKERQLADAKQCVQFVEAAAHESEQQKEASWKHNQELRKALQQLQEELQNKSQQLRAWEAEKYNEIRTQEQNIQHLNHSLSHKEQLLQEFRELLQYRDNSDKTLEANEMLLEKLRQRIHDKAVALERAIDEKFSALEEKEKELRQLRLAVRERDHDLERLRDVLSSNEATMQSMESLLRAKGLEVEQLSTTCQNLQWLKEEMETKFSRWQKEQESIIQQLQTSLHDRNKEVEDLSATLLCKLGPGQSEIAEELCQRLQRKERMLQDLLSDRNKQVLEHEMEIQGLLQSVSTREQESQAAAEKLVQALMERNSELQALRQYLGGRDSLMSQAPISNQQAEVTPTGRLGKQTDQGSMQIPSRDDSTSLTAKEDVSIPRSTLGDLDTVAGLEKELSNAKEELELMAKKERESQMELSALQSMMAVQEEELQVQAADMESLTRNIQIKEDLIKDLQMQLVDPEDIPAMERLTQEVLLLREKVASVESQGQEISGNRRQQLLLMLEGLVDERSRLNEALQAERQLYSSLVKFHAHPESSERDRTLQVELEGAQVLRSRLEEVLGRSLERLNRLETLAAIGGAAAGDDTEDTSTEFTDSIEEEAAHHSHQQL
partner: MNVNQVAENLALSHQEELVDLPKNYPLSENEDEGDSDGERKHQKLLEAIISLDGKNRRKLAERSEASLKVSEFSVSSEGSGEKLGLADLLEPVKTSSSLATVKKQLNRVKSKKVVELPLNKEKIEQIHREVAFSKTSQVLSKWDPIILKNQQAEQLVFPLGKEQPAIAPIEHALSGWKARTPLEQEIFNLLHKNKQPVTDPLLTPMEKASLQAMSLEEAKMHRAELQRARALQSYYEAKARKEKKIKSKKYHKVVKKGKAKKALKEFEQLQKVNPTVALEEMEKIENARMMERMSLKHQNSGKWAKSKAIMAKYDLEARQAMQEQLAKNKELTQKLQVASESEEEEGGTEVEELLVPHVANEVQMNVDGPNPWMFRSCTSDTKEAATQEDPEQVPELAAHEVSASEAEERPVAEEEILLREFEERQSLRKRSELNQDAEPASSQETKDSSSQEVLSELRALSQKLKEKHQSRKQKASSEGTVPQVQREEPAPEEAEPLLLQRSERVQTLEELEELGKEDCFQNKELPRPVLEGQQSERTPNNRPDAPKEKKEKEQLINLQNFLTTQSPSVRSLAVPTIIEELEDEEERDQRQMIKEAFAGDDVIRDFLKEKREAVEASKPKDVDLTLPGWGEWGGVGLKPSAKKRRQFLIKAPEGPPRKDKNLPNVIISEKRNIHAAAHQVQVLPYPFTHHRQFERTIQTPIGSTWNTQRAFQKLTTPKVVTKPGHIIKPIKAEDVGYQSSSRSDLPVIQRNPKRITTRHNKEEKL
B2: E3 ubiquitin-protein ligase TRIM32 (Homo sapiens), Q13049 (parent)
chain: MAAAAASHLNLDALREVLECPICMESFTEEQLRPKLLHCGHTICRQCLEKLLASSINGVRCPFCSKITRITSLTQLTDNLTVLKIIDTAGLSEAVGLLMCRSCGRRLPRQFCRSCGLVLCEPCREADHQPPGHCTLPVKEAAEERRRDFGEKLTRLRELMGELQRRKAALEGVSKDLQARYKAVLQEYGHEERRVQDELARSRKFFTGSLAEVEKSNSQVVEEQSYLLNIAEVQAVSRCDYFLAKIKQADVALLEETADEEEPELTASLPRELTLQDVELLKVGHVGPLQIGQAVKKPRTVNVEDSWAMEATASAASTSVTFREMDMSPEEVVASPRASPAKQRGPEAASNIQQCLFLKKMGAKGSTPGMFNLPVSLYVTSQGEVLVADRGNYRIQVFTRKGFLKEIRRSPSGIDSFVLSFLGADLPNLTPLSVAMNCQGLIGVTDSYDNSLKVYTLDGHCVACHRSQLSKPWGITALPSGQFVVTDVEGGKLWCFTVDRGSGVVKYSCLCSAVRPKFVTCDAEGTVYFTQGLGLNLENRQNEHHLEGGFSIGSVGPDGQLGRQISHFFSENEDFRCIAGMCVDARGDLIVADSSRKEILHFPKGGGYSVLIREGLTCPVGIALTPKGQLLVLDCWDHCIKIYSYHLRRYSTP
partner: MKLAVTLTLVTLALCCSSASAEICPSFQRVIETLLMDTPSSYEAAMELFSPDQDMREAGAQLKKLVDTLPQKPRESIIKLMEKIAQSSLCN
B3: Uncharacterized protein C3orf62 (Homo sapiens), Q6ZUJ4 (parent)
chain: MHYIKTWSLLGEMSEKLRRCRKELTAAIDRAFEGVSYSQECTGQQRLELSAAPLSFSLPVHRLLCRRHPLAACSSAAPFAAVPCAPENENPAFATNHAPVNAKPHALCPERKPLTSKENVLMHSSILAPERESWRTAGEGENWRKENLRKDMERDLKADSNMPLNNSSQEVTKDLLDMIDHTSIRTIEELAGKIEFENELNHMCGHCQDSPFKEEAWALLMDKSPQKATDADPGSLKQAFDDHNIVETVLDLEEDYNVMTSFKYQIE
partner: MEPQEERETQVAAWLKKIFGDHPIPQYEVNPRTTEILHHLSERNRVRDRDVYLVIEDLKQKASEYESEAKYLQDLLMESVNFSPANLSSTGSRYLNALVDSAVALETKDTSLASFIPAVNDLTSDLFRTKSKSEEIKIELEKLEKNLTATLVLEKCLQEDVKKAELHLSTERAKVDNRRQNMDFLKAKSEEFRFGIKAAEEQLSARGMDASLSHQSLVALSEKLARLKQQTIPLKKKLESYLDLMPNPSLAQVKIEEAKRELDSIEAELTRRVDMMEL
B4: Splicing factor 45 (Homo sapiens), Q96I25 (parent)
chain: MSLYDDLGVETSDSKTEGWSKNFKLLQSQLQVKKAALTQAKSQRTKQSTVLAPVIDLKRGGSSDDRQIVDTPPHVAAGLKDPVPSGFSAGEVLIPLADEYDPMFPNDYEKVVKRQREERQRQRELERQKEIEEREKRRKDRHEASGFARRPDPDSDEDEDYERERRKRSMGGAAIAPPTSLVEKDKELPRDFPYEEDSRPRSQSSKAAIPPPVYEEQDRPRSPTGPSNSFLANMGGTVAHKIMQKYGFREGQGLGKHEQGLSTALSVEKTSKRGGKIIVGDATEKDASKKSDSNPLTEILKCPTKVVLLRNMVGAGEVDEDLEVETKEECEKYGKVGKCVIFEIPGAPDDEAVRIFLEFERVESAIKAVVDLNGRYFGGRVVKACFYNLDKFRVLDLAEQV
partner: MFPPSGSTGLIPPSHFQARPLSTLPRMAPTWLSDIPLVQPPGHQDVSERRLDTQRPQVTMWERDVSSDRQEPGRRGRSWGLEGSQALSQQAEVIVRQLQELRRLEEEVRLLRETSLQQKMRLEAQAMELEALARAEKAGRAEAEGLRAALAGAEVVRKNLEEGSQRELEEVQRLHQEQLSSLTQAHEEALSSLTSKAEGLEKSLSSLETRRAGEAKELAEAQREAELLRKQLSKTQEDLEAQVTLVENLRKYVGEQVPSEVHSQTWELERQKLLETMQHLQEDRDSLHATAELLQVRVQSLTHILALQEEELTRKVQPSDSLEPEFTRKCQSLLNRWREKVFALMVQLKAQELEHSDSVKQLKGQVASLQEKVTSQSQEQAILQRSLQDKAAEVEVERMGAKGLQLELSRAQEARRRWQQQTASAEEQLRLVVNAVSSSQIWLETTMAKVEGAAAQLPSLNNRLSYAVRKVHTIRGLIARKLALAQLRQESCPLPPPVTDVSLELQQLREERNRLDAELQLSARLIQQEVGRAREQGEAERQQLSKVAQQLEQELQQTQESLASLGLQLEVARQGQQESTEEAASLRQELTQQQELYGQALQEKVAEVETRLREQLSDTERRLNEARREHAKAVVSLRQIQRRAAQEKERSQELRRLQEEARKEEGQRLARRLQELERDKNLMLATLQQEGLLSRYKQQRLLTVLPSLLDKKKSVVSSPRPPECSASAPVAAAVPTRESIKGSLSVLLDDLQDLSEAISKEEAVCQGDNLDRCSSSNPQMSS
B5: Myomegalin (Homo sapiens), Q5VU43-2 (parent)
chain: B1 chain

In the first test the parent is B1. The settings on record: with ut14c_human UTP14C.
On to N28S, for which the “effect of a mutation on the interaction” value was “with no effect”.

Variants of B2 are the subject of another test. The settings on record: with uter_human SCGB1A1, P11684.
For the variant E547A, the “effect of a mutation on the interaction” value is on record as “disrupting interaction strength”.

In a further test the parent is B3. The settings on record: with haus1_human HAUS1, Q96CS2.
Consider R66G, for which the “effect of a mutation on the interaction” value was “with no effect”.

The variants in a further test derive from B4. The settings on record: with cchcr_human CCHCR1, Q8TD31.
Turning to T224I, the “effect of a mutation on the interaction” value is “with no effect”.

Variants of B5 are the subject of a further test. The settings on record: with prp31_human PRPF31, Q8WWY3.
Chain of prp31_human PRPF31, Q8WWY3 (Q8WWY3 whole entry): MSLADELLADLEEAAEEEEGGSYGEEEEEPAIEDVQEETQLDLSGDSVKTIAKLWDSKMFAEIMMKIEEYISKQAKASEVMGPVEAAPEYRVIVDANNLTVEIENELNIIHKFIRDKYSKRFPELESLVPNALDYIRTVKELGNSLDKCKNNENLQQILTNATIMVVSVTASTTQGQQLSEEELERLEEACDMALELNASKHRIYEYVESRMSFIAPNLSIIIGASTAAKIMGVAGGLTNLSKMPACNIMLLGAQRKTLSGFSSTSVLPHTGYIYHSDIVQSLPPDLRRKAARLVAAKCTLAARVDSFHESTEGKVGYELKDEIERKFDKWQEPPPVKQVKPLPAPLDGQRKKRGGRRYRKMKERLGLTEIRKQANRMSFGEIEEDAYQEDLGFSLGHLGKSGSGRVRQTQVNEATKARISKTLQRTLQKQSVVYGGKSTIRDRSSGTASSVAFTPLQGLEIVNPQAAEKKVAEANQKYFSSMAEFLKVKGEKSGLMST
Turning to N28S, the “effect of a mutation on the interaction” value is “with no effect”.

The next test covers variants of B5. The settings on record: with sdcb1_human SDCBP.
In the case of N28S, the “effect of a mutation on the interaction” value is reported as “with no effect”.

The variants in a further test derive from B5. The settings on record: with mare1_human MAPRE1, Q15691.
Chain of mare1_human MAPRE1, Q15691 (Q15691 whole entry): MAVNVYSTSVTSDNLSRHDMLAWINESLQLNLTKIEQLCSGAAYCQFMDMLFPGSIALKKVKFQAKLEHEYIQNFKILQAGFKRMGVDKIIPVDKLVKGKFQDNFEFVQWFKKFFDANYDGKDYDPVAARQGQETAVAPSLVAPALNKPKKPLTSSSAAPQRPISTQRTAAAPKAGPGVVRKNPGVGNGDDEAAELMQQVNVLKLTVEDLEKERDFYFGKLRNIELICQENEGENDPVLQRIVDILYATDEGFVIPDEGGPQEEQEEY
As to N28S, the “effect of a mutation on the interaction” value is on record as “with no effect”.
